Assay results from IntAct's records for PubMed 21850687.

B1: Thioredoxin-dependent peroxide reductase, mitochondrial (Homo sapiens), P30048 (parent)
chain: MAAAVGRLLRASVARHVSAIPWGISATAALRPAACGRTSLTNLLCSGSSQAKLFSTSSSCHAPAVTQHAPYFKGTAVVNGEFKDLSLDDFKGKYLVLFFYPLDFTFVCPTEIVAFSDKANEFHDVNCEVVAVSVDSHFSHLAWINTPRKNGGLGHMNIALLSDLTKQISRDYGVLLEGSGLALRGLFIIDPNGVIKHLSVNDLPVGRSVEETLRLVKAFQYVETHGEVCPANWTPDSPTIKPSPAASKEYFQKVNQ

Variants of: B1
Details: with lrrk2_human LRRK2, Q5S007
Sequence of lrrk2_human LRRK2, Q5S007 (Q5S007 whole entry): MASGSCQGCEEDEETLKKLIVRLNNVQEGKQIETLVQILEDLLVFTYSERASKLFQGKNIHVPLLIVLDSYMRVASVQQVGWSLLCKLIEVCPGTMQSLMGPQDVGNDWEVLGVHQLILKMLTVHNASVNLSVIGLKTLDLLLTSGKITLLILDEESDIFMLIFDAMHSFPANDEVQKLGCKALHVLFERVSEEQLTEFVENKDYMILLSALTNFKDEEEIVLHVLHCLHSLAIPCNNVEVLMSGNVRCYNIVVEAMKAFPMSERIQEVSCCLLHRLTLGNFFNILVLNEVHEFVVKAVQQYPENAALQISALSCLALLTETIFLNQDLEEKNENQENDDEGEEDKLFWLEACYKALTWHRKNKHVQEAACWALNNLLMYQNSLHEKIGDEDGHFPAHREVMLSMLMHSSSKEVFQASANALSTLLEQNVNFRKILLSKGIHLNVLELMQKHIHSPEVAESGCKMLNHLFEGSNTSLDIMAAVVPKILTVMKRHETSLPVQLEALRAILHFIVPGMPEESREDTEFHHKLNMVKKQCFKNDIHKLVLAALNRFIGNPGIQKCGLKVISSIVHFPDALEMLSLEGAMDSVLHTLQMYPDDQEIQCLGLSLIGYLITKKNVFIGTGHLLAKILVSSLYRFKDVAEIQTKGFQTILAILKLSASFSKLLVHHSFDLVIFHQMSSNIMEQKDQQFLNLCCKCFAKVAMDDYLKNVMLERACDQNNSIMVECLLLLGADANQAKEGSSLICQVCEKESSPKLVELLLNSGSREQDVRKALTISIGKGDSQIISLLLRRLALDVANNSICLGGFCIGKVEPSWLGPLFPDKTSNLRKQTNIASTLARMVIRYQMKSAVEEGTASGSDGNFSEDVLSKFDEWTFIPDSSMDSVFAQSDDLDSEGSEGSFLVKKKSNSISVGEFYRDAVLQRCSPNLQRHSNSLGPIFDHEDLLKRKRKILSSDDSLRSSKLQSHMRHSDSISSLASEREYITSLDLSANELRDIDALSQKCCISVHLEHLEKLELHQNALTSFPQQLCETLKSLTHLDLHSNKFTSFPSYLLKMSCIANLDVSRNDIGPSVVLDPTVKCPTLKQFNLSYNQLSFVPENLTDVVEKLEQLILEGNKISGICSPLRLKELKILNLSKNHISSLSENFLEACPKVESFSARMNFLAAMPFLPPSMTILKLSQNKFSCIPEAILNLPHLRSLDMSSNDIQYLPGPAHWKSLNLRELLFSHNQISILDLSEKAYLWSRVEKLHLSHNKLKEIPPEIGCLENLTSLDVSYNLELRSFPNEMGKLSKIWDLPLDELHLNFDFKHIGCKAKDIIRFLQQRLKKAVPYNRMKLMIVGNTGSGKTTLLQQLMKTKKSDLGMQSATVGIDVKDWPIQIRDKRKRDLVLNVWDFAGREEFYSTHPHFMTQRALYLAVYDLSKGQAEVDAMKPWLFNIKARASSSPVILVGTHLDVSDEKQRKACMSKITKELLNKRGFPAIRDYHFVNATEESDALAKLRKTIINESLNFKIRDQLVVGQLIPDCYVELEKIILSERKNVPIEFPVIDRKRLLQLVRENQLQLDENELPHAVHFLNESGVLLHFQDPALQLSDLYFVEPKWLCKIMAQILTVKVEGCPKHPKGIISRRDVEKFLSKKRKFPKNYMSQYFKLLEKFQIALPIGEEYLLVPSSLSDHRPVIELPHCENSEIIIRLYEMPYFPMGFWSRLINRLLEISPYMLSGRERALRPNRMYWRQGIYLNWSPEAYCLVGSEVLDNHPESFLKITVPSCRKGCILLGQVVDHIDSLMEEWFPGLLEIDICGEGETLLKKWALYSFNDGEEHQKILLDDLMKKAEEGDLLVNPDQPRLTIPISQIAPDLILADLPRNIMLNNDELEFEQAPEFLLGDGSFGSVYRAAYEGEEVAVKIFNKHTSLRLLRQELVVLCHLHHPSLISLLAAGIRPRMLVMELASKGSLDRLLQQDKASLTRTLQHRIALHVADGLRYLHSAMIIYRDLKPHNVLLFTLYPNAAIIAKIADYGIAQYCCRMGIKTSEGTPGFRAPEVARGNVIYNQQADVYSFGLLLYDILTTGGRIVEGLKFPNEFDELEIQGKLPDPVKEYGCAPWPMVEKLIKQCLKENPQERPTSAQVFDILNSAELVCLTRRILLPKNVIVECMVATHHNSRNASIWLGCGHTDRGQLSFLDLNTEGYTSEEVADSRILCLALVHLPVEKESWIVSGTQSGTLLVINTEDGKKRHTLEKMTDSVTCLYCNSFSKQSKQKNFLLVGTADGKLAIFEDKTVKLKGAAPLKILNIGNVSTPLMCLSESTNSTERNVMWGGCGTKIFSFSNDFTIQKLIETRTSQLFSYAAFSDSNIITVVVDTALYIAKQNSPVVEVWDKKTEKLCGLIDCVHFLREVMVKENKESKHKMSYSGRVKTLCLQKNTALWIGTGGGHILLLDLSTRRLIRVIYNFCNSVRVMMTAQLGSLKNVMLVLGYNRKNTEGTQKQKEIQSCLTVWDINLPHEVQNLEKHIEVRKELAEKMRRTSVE

Row | Variant | effect of a mutation on the interaction
1 | T146A | disrupting interaction
